In patent US20260201008A1, “SECRETIN-DERIVED GLP1R SELECTIVE AGONISTS” (GUBRA A/S, priority 2023, published 2026):
Numbered stars: 1 amine (or outer) side, 2 acyl side, 3 side chain; on linkers, the order of the positions; unused ones are H or OH. Square brackets hold non-standard residues; d marks the D form. Side chains are listed from the residue outwards. Ends that are not written are not given here. * marks the point of attachment. C20 diacid = O=C(O)CCCCCCCCCCCCCCCCCCC(=O)*; γGlu = O=C(O)[C@H](CCC(=O)[*:2])N[*:1]; AEEA = NCCOCCOCC(=O)O; Aib = CC(C)(N)C(=O)O

B1: SEQ ID NO: 51 (peptide)
peptide: H[Aib]EGTFTSDVSELK([AEEA-AEEA-γGlu-C20 diacid])EEAAEQRFLEHLV-NH2
B2: SEQ ID NO: 83 (peptide)
peptide: H[Aib]EGTFTSDVSFLK([AEEA-AEEA-γGlu-C20 diacid])EEAAQQRFLEHLV-NH2
B3: SEQ ID NO: 56 (peptide)
peptide: H[Aib]EGTFTSDVSFLK([AEEA-AEEA-γGlu-C20 diacid])EEAAEQRFLEHLV-NH2
B4: SEQ ID NO: 73 (peptide)
peptide: H[Aib]EGTFTSDVSRLK([AEEA-AEEA-γGlu-C20 diacid])EEAAQQRFLEHLV-NH2
B5: SEQ ID NO: 77 (peptide)
peptide: H[Aib]EGTFTSDVSTLK([AEEA-AEEA-γGlu-C20 diacid])EEAA[Aib]QRFLEHLV-NH2
B6: SEQ ID NO: 67 (peptide)
peptide: H[Aib]EGTFTSDVSTLK([AEEA-AEEA-γGlu-C20 diacid])ELAATQRFLEHLV-NH2
B7: SEQ ID NO: 74 (peptide)
peptide: H[Aib]EGTFTSDVSFLK([AEEA-AEEA-γGlu-C20 diacid])E[Aib]AASQRFLEHLV-NH2
B8: SEQ ID NO: 65 (peptide)
peptide: H[Aib]EGTFTSDVSRLK([AEEA-AEEA-γGlu-C20 diacid])EEAATQRFLEHLV-NH2
B9: SEQ ID NO: 79 (peptide)
peptide: H[Aib]EGTFTSDVSTLK([AEEA-AEEA-γGlu-C20 diacid])ELAA[Aib]QRFLEHLV-NH2
B10: SEQ ID NO: 69 (peptide)
peptide: H[Aib]EGTFTSDVSYLK([AEEA-AEEA-γGlu-C20 diacid])ETAAEQRFLEHLV-NH2
B11: SEQ ID NO: 64 (peptide)
peptide: H[Aib]EGTFTSDVSRLK([AEEA-AEEA-γGlu-C20 diacid])E[Aib]AA[Aib]QRFLEHLV-NH2
B12: SEQ ID NO: 58 (peptide)
peptide: H[Aib]EGTFTSDVSYLK([AEEA-AEEA-γGlu-C20 diacid])ETAAQQRFLEHLV-NH2
B13: SEQ ID NO: 6 (peptide)
peptide: H[Aib]EGTFTSDVSTLK([AEEA-AEEA-γGlu-C20 diacid])EEAASQRFLEHLV-NH2
B14: SEQ ID NO: 72 (peptide)
peptide: H[Aib]EGTFTSDVSRLK([AEEA-AEEA-γGlu-C20 diacid])EFAAEQRFLEHLV-NH2
B15: SEQ ID NO: 68 (peptide)
peptide: H[Aib]EGTFTSDVSRLK([AEEA-AEEA-γGlu-C20 diacid])EFAA[Aib]QRFLEHLV-NH2
B16: SEQ ID NO: 80 (peptide)
peptide: H[Aib]EGTFTSDVSELK([AEEA-AEEA-γGlu-C20 diacid])ELAATQRFLEHLV-NH2
B17: SEQ ID NO: 7 (peptide)
peptide: H[Aib]EGTFTSDVSELK([AEEA-AEEA-γGlu-C20 diacid])E[Aib]AA[Aib]QRFLEHLV-NH2
B18: SEQ ID NO: 53 (peptide)
peptide: H[Aib]EGTFTSDVSVLK([AEEA-AEEA-γGlu-C20 diacid])EEAATQRFLEHLV-NH2
B19: SEQ ID NO: 54 (peptide)
peptide: H[Aib]EGTFTSDVSELK([AEEA-AEEA-γGlu-C20 diacid])ETAATQRFLEHLV-NH2
B20: SEQ ID NO: 57 (peptide)
peptide: H[Aib]EGTFTSDVSELK([AEEA-AEEA-γGlu-C20 diacid])ETAAAQRFLEHLV-NH2
B21: SEQ ID NO: 70 (peptide)
peptide: H[Aib]EGTFTSDVSFLK([AEEA-AEEA-γGlu-C20 diacid])ETAATQRFLEHLV-NH2
B22: SEQ ID NO: 52 (peptide)
peptide: H[Aib]EGTFTSDVSRLK([AEEA-AEEA-γGlu-C20 diacid])EFAASQRFLEHLV-NH2
B23: SEQ ID NO: 76 (peptide)
peptide: H[Aib]EGTFTSDVSYLK([AEEA-AEEA-γGlu-C20 diacid])EFAAQQRFLEHLV-NH2
B24: SEQ ID NO: 50 (peptide)
peptide: H[Aib]EGTFTSDVSRLK([AEEA-AEEA-γGlu-C20 diacid])E[Aib]AATQRFLEHLV-NH2
B25: SEQ ID NO: 8 (peptide)
peptide: H[Aib]EGTFTSDVSELK([AEEA-AEEA-γGlu-C20 diacid])EFAASQRFLEHLV-NH2
B26: SEQ ID NO: 62 (peptide)
peptide: H[Aib]EGTFTSDVSVLK([AEEA-AEEA-γGlu-C20 diacid])ETAAAQRFLEHLV-NH2
B27: SEQ ID NO: 81 (peptide)
peptide: H[Aib]EGTFTSDVSRLK([AEEA-AEEA-γGlu-C20 diacid])E[Aib]AAAQRFLEHLV-NH2
B28: SEQ ID NO: 59 (peptide)
peptide: H[Aib]EGTFTSDVSRLK([AEEA-AEEA-γGlu-C20 diacid])E[Aib]AASQRFLEHLV-NH2
B29: SEQ ID NO: 78 (peptide)
peptide: H[Aib]EGTFTSDVSTLK([AEEA-AEEA-γGlu-C20 diacid])ELAAEQRFLEHLV-NH2
B30: SEQ ID NO: 60 (peptide)
peptide: H[Aib]EGTFTSDVSRLK([AEEA-AEEA-γGlu-C20 diacid])EEAAAQRFLEHLV-NH2
B31: SEQ ID NO: 71 (peptide)
peptide: H[Aib]EGTFTSDVSRLK([AEEA-AEEA-γGlu-C20 diacid])ETAASQRFLEHLV-NH2
B32: SEQ ID NO: 66 (peptide)
peptide: H[Aib]EGTFTSDVSYLK([AEEA-AEEA-γGlu-C20 diacid])EFAASQRFLEHLV-NH2
B33: SEQ ID NO: 55 (peptide)
peptide: H[Aib]EGTFTSDVSELK([AEEA-AEEA-γGlu-C20 diacid])EEAATQRFLEHLV-NH2
B34: SEQ ID NO: 61 (peptide)
peptide: H[Aib]EGTFTSDVSYLK([AEEA-AEEA-γGlu-C20 diacid])EEAAAQRFLEHLV-NH2
B35: SEQ ID NO: 75 (peptide)
peptide: H[Aib]EGTFTSDVSYLK([AEEA-AEEA-γGlu-C20 diacid])EEAASQRFLEHLV-NH2
B36: SEQ ID NO: 63 (peptide)
peptide: H[Aib]EGTFTSDVSFLK([AEEA-AEEA-γGlu-C20 diacid])EEAAAQRFLEHLV-NH2
B37: SEQ ID NO: 82 (peptide)
peptide: H[Aib]EGTFTSDVSELK([AEEA-AEEA-γGlu-C20 diacid])E[Aib]AATQRFLEHLV-NH2

Assays:
[1] = target: human GLP-1 receptor (hGLP1R) (human, UniProt P43220 24-463); test: cell-based or functional assay
[2] = target: human secretin receptor (hSCTR) (human, UniProt P47872 23-440); test: cell-based or functional assay
human secretin receptor (hSCTR), sequence (P47872 23-440): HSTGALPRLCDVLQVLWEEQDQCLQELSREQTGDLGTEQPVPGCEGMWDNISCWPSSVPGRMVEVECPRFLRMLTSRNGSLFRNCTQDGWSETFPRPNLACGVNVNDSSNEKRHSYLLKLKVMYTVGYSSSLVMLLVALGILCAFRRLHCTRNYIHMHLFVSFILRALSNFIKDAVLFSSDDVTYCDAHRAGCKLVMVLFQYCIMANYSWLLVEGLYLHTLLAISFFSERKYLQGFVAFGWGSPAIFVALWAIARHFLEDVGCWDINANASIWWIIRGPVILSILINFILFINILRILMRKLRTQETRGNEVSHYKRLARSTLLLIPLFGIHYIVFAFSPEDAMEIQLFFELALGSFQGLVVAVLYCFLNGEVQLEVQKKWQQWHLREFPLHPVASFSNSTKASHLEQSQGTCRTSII

| Binder | pEC50 hGLPR1 [1] | pEC50 hSCTR [2] |
| --- | --- | --- |
| B1 | 10.5 -log M | 5.7 -log M |
| B2 | 10.5 -log M | 5.8 -log M |
| B3 | 10.4 -log M | 5.1 -log M |
| B4 | 11.2 -log M | 7.1 -log M |
| B5 | 10.7 -log M | 5.8 -log M |
| B6 | 10.3 -log M | 6.4 -log M |
| B7 | 10.2 -log M | 4.9 -log M |
| B8 | 11.5 -log M | 7.6 -log M |
| B9 | 10 -log M | 5.5 -log M |
| B10 | 10.8 -log M | 4.8 -log M |
| B11 | 10.2 -log M | 6.5 -log M |
| B12 | 10.6 -log M | 6 -log M |
| B13 | 10.5 -log M | 6.5 -log M |
| B14 | 10 -log M | 6 -log M |
| B15 | 10 -log M | 5.9 -log M |
| B16 | 10.7 -log M | 6.1 -log M |
| B17 | 10.2 -log M | 6 -log M |
| B18 | 11.3 -log M | 7.2 -log M |
| B19 | 10.9 -log M | 6.9 -log M |

| Binder | pEC50 hGLPR1 [1] | pEC50 hSCTR [2] |
| --- | --- | --- |
| B20 | 10.6 -log M | 5.3 -log M |
| B21 | 10.7 -log M | 7 -log M |
| B22 | 9.9 -log M | 6.4 -log M |
| B23 | 10.1 -log M | 5 -log M |
| B24 | 10.8 -log M | 7.3 -log M |
| B25 | 10.3 -log M | 5.8 -log M |
| B26 | 10 -log M | 5.7 -log M |
| B27 | 10.1 -log M | 7.1 -log M |
| B28 | 10.5 -log M | 6.9 -log M |
| B29 | 10.3 -log M | 5.4 -log M |
| B30 | 10.5 -log M | 6.6 -log M |
| B31 | 10.2 -log M | 6 -log M |
| B32 | 10.4 -log M | 5.5 -log M |
| B33 | 11 -log M | 6.8 -log M |
| B34 | 10.9 -log M | 6.1 -log M |
| B35 | 10.6 -log M | 5.5 -log M |
| B36 | 10.3 -log M | 5 -log M |
| B37 | 11 -log M | 7 -log M |
